This is an account of results in patent US20240076343A1.

Assay [1] addresses recombinant His-tagged cynomolgus PD-1 (Acro Biosystems) (cynomolgus) (UniProt B0LAJ3). The assay is described as follows: SPR Carterra LSA.
For assay [2], the target named is recombinant His-tagged human PD-1 (Acro Biosystems) (human) (UniProt Q15116). In words: SPR Carterra LSA.
Chain of recombinant His-tagged human PD-1 (Acro Biosystems) (human) (Q15116 25-167 limits assumed): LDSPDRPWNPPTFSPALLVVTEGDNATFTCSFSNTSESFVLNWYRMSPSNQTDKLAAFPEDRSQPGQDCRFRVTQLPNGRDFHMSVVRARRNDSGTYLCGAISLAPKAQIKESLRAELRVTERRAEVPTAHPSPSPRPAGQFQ

Chain of recombinant His-tagged cynomolgus PD-1 (Acro Biosystems) (cynomolgus) (B0LAJ3 entry or part of it limits assumed): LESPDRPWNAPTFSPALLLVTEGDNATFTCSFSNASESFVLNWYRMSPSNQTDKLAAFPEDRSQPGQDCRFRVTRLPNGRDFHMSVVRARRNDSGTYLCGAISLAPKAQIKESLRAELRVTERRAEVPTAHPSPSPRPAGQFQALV

Regarding Anti-PD-1 clone MIH4 mIgG1 (antibody), in assay [1], the Kd was found to be 891 nM, the koff is 0.12 s⁻¹ and the kon worked out at 130000 M⁻¹ s⁻¹. Further, in assay [2], the Kd was 10 nM, the koff was found to be 0.0014 s⁻¹ and the kon came to 130000 M⁻¹ s⁻¹.

On to “Anti-hPD-1 clone EH12.2H7-mIgG1 (antibody)”, for which, in assay [1], the Kd came to 85 nM, the koff was 0.0073 s⁻¹ and the kon was 86000 M⁻¹ s⁻¹. In addition, in assay [2], the Kd came out at 19 nM, the koff was found to be 0.0022 s⁻¹ and the kon was determined as 110000 M⁻¹ s⁻¹.

Turning to Anti-hPD-1 clone J105-mIgG1 (antibody), in assay [1], the Kd was determined as 1300 nM, the koff came out at 0.066 s⁻¹ and the kon worked out at 50000 M⁻¹ s⁻¹. Further, in assay [2], the Kd stood at 86 nM, the koff amounted to 0.0053 s⁻¹ and the kon is 62000 M⁻¹ s⁻¹.

For the substance KEYTRUDA ® (pembrolizumab) (antibody), in assay [1], the Kd turned out to be 0.575 nM.

Turning to OPDIVO ® (nivolumab) (antibody), the dissociation constant (Kd) in assay [1] was 6.4 nM.
